Like-named read-outs stand apart in the source and are kept apart here.
Key:
[1] = target: T1, Rrp43 (subunit of Exo10 in the crystal structure) (S. cerevisiae, UniProt P25359); assay: crystal structure
T1 sequence: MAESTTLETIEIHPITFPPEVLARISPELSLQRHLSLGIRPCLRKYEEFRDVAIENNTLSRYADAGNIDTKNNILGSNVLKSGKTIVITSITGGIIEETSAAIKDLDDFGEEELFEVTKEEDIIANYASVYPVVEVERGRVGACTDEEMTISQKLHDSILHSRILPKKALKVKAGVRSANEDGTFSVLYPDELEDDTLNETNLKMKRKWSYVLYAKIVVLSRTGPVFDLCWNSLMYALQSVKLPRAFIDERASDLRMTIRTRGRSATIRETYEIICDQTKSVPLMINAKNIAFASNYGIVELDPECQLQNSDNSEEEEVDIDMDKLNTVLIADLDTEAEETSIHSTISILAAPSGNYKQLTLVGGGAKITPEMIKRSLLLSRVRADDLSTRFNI

[2] = target: T2, S. cerevisiae Exo9 (nine-subunit exosome core, no Rrp44 subunit) (S. cerevisiae, UniProt P46948;Q05636;P53256;P25359;P48240;Q12277;P38792;Q08285;P53859); assay: MST
[3] = target: T2, S. cerevisiae Exo9 (nine-subunit …); assay: pull-down
[4] = target: T2, S. cerevisiae Exo9 (nine-subunit …); assay: pull-down; remark: listed apart in the source

B1: Mtr3 (subunit of Exo10 in the crystal structure) (natural protein)
chain: MNVQDRRRLLGPAAAKPMAFSNTTTHVPEKKSTDLTPKGNESEQELSLHTGFIENCNGSALVEARSLGHQTSLITAVYGPRSIRGSFTSQGTISIQLKNGLLEKYNTNELKEVSSFLMGIFNSVVNLSRYPKSGIDIFVYLTYDKDLTNNPQDDDSQSKMMSSQISSLIPHCITSITLALADAGIELVDMAGAGEANGTVVSFIKNGEEIVGFWKDDGDDEDLLECLDRCKEQYNRYRDLMISCLMNQET
binding result [1]: binds

B2: GFP-Ski7_(exomut-1) (Trp125Asp, Ile128Asp) (domain or fragment)
chain: DDKLNLEESDKADKEMNHYCFLKNDPCINQTDDFAFTNFIIKDKKNSLSTSIPLSSQNSSFLSLKKHNNELLGIFVPCNLPKTTRKVAIENFNRPSPDDIIQSAQLNAFN
Kd [2]: 50 nM

B3: Ski7 residues 116-235 (Exo9-interacting domain) (domain or fragment)
chain: DDKLNLEESWKAIKEMNHYCFLKNDPCINQTDDFAFTNFIIKDKKNSLSTSIPLSSQNSSFLSLKKHNNELLGIFVPCNLPKTTRKVAIENFNRPSPDDIIQSAQLNAFNEKLENLNIKS
binding result [3]: binds

B4: GFP-tagged Ski7exo (domain or fragment)
chain: DDKLNLEESWKAIKEMNHYCFLKNDPCINQTDDFAFTNFIIKDKKNSLSTSIPLSSQNSSFLSLKKHNNELLGIFVPCNLPKTTRKVAIENFNRPSPDDIIQSAQLNAFN
Kd [2]: ~5 nM

B5: GFP-Ski7_(exomut-3) (Ile189Asp, Phe190Asp) (domain or fragment)
chain: DDKLNLEESWKAIKEMNHYCFLKNDPCINQTDDFAFTNFIIKDKKNSLSTSIPLSSQNSSFLSLKKHNNELLGDDVPCNLPKTTRKVAIENFNRPSPDDIIQSAQLNAFN
binding result [4]: binds

B6: GFP-Ski7_(exomut-2) (Phe149Asp, Phe151Asp, Phe154Asp) (domain or fragment)
chain: DDKLNLEESWKAIKEMNHYCFLKNDPCINQTDDDADTNDIIKDKKNSLSTSIPLSSQNSSFLSLKKHNNELLGIFVPCNLPKTTRKVAIENFNRPSPDDIIQSAQLNAFN
binding result [4]: binds

B7: GFP-tagged Rrp6exo (GFP-Sumo-Rrp6C, Rrp6 residues 518-693) (domain or fragment)
chain: EATPIPSSETKADGILLETISVPQIRDVMERFSVLCNSNISKSRAKPVTNSSILLGKILPREEHDIAYSKDGLPNKVKTEDIRIRAQNFKSALANLEDIIFEIEKPLVVPVKLEEIKTVDPASAPNHSPEIDNLDDLVVLKKKNIQKKQPAKEKGVTEKDAVDYSKIPNILSNKPG
Kd [2]: ~10 nM

From paper PMC4942675 (Molecular Cell, 2016)
